Assay results reported in article PMC9482650, “Quantitative fragmentomics allow affinity mapping of interactomes” (Nature Communications, 2022).

T1: MPDZ_5, O75970
T1 sequence (O75970 695-796, limits assumed, looked up): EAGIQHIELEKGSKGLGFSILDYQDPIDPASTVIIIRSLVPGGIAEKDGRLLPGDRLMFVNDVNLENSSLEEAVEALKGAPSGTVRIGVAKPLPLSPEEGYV

T2: DLG3_2, Q92796
T2 sequence (Q92796 221-321, limits assumed, looked up): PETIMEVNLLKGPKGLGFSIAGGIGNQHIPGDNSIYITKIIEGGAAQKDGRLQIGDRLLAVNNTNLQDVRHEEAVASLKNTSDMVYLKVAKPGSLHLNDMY

T3: MPDZ_12, O75970
T3 sequence (O75970 1857-1958, limits assumed, looked up): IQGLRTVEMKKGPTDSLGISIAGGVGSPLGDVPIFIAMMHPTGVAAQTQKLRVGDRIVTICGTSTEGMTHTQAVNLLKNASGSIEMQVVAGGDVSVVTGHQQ

T4: DFNB31_1, Q9P202
T4 sequence (Q9P202 135-233, limits assumed, looked up): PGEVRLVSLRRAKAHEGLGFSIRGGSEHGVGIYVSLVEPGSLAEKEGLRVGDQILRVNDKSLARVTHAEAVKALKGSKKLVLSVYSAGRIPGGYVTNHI

T5: SIPA1L2, Q9P2F8
T5 sequence (Q9P2F8 945-1036, limits assumed, looked up): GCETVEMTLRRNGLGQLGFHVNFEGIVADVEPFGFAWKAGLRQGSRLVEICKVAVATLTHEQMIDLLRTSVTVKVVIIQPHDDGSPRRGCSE

T6: SNTG2, Q9NY99
T6 sequence (Q9NY99 68-166, limits assumed, looked up): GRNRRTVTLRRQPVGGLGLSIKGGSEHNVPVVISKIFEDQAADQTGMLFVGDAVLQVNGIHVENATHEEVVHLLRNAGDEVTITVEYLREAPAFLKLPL

T7: DLG3_1, Q92796
T7 sequence (Q92796 125-227, limits assumed, looked up): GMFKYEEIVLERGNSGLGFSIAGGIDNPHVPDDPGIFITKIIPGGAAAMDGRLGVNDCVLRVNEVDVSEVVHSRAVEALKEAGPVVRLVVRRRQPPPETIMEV

T8: MPDZ_10, O75970
T8 sequence (O75970 1624-1722, limits assumed, looked up): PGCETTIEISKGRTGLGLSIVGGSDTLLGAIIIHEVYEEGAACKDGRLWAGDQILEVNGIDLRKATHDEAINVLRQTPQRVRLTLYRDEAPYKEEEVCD

T9: PDZRN3_1, Q9UPQ7
T9 sequence (Q9UPQ7 244-349, limits assumed, looked up): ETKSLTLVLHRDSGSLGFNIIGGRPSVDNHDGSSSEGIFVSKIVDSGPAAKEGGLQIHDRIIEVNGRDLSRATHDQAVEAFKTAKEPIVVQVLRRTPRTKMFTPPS

T10: LIN7B, Q9HAP6
T10 sequence (Q9HAP6 88-185, limits assumed, looked up): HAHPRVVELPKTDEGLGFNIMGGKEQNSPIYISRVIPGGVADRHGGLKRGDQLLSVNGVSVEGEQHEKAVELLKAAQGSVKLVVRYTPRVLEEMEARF

T11: NHERF3_3, Q5T2W1
T11 sequence (Q5T2W1 238-333, limits assumed, looked up): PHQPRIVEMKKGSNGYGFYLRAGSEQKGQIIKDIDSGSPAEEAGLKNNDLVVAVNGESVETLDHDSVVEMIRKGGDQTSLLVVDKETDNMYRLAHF

T12: RAPGEF6, Q8TEU7
T12 sequence (Q8TEU7 525-625, limits assumed, looked up): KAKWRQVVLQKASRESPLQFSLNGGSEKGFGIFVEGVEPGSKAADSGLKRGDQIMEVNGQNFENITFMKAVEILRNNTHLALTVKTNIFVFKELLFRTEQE


Target: AHNAK1, Q09666
Experiment: holdup assay
Design: key: below the threshold = too weak to quantify, mostly under pKd 3.1 to 4
Details: plain residues with an end cap or a label only (N-terminal biotin on a linker: ado-ado)

AHNAK1, Q09666, sequence (Q09666 4-100): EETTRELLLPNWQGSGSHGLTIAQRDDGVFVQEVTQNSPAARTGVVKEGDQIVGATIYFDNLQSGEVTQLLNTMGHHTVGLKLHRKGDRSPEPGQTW

| Binder | pKd |
| --- | --- |
| SRSVVESDEL [MYPN, Q86TC9] | below the threshold |
| KRPEMTSSSV [MUC3A, MUC3B, Q02505;Q9H195] | below the threshold |

Target: Inadl_5, Q8NI35
Experiment: holdup assay
Design: key: below the threshold = too weak to quantify, mostly under pKd 3.1 to 4
Details: plain residues with an end cap or a label only (N-terminal biotin on a linker: ado-ado)

Inadl_5, Q8NI35, sequence (Q8NI35 673-780): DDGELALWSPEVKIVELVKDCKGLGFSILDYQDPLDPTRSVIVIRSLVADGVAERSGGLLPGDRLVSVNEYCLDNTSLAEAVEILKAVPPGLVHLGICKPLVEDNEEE

| Binder | pKd |
| --- | --- |
| SRSVVESDEL [MYPN, Q86TC9] | below the threshold |
| KRPEMTSSSV [MUC3A, MUC3B, Q02505;Q9H195] | below the threshold |

Target: T1, MPDZ_5, O75970
Experiment: holdup assay
Design: key: below the threshold = too weak to quantify, mostly under pKd 3.1 to 4
Details: plain residues with an end cap or a label only (N-terminal biotin on a linker: ado-ado)

| Binder | pKd |
| --- | --- |
| SRSVVESDEL [MYPN, Q86TC9] | below the threshold |
| KRPEMTSSSV [MUC3A, MUC3B, Q02505;Q9H195] | below the threshold |

Target: T2, DLG3_2, Q92796
Experiment: holdup assay
Design: key: below the threshold = too weak to quantify, mostly under pKd 3.1 to 4
Details: plain residues with an end cap or a label only (N-terminal biotin on a linker: ado-ado)

| Binder | pKd |
| --- | --- |
| SRSVVESDEL [MYPN, Q86TC9] | below the threshold |
| KRPEMTSSSV [MUC3A, MUC3B, Q02505;Q9H195] | 4.26 |

Target: TJP1_3, Q07157
Experiment: holdup assay
Design: key: below the threshold = too weak to quantify, mostly under pKd 3.1 to 4
Details: plain residues with an end cap or a label only (N-terminal biotin on a linker: ado-ado)

TJP1_3, Q07157, sequence (Q07157 416-512): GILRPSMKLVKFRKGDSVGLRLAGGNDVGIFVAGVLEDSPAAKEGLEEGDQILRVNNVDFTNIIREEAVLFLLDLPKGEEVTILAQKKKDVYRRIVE

| Binder | pKd |
| --- | --- |
| SRSVVESDEL [MYPN, Q86TC9] | below the threshold |
| KRPEMTSSSV [MUC3A, MUC3B, Q02505;Q9H195] | below the threshold |

Target: Inadl_3, Q8NI35
Experiment: holdup assay
Design: key: below the threshold = too weak to quantify, mostly under pKd 3.1 to 4
Details: plain residues with an end cap or a label only (N-terminal biotin on a linker: ado-ado)

Inadl_3, Q8NI35, sequence (Q8NI35 359-469): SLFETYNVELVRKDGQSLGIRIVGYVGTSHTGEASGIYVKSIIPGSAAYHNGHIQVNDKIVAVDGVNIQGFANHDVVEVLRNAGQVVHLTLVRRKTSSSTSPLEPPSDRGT

| Binder | pKd |
| --- | --- |
| SRSVVESDEL [MYPN, Q86TC9] | below the threshold |
| KRPEMTSSSV [MUC3A, MUC3B, Q02505;Q9H195] | below the threshold |

Target: DLG1_3, Q12959
Experiment: holdup assay
Design: key: below the threshold = too weak to quantify, mostly under pKd 3.1 to 4
Details: plain residues with an end cap or a label only (N-terminal biotin on a linker: ado-ado)

DLG1_3, Q12959, sequence (Q12959 457-571): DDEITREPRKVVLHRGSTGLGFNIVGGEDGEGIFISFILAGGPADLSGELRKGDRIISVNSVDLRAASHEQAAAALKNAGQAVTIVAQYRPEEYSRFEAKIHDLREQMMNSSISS

| Binder | pKd |
| --- | --- |
| SRSVVESDEL [MYPN, Q86TC9] | below the threshold |
| KRPEMTSSSV [MUC3A, MUC3B, Q02505;Q9H195] | below the threshold |

Target: T3, MPDZ_12, O75970
Experiment: holdup assay
Design: key: below the threshold = too weak to quantify, mostly under pKd 3.1 to 4
Details: plain residues with an end cap or a label only (N-terminal biotin on a linker: ado-ado)

| Binder | pKd |
| --- | --- |
| SRSVVESDEL [MYPN, Q86TC9] | below the threshold |

Target: T4, DFNB31_1, Q9P202
Experiment: holdup assay
Design: key: below the threshold = too weak to quantify, mostly under pKd 3.1 to 4
Details: plain residues with an end cap or a label only (N-terminal biotin on a linker: ado-ado)

| Binder | pKd |
| --- | --- |
| SRSVVESDEL [MYPN, Q86TC9] | below the threshold |

Target: T5, SIPA1L2, Q9P2F8
Experiment: holdup assay
Design: key: below the threshold = too weak to quantify, mostly under pKd 3.1 to 4
Details: plain residues with an end cap or a label only (N-terminal biotin on a linker: ado-ado)

| Binder | pKd |
| --- | --- |
| SRSVVESDEL [MYPN, Q86TC9] | below the threshold |
| KRPEMTSSSV [MUC3A, MUC3B, Q02505;Q9H195] | below the threshold |

Target: T6, SNTG2, Q9NY99
Experiment: holdup assay
Design: key: below the threshold = too weak to quantify, mostly under pKd 3.1 to 4
Details: plain residues with an end cap or a label only (N-terminal biotin on a linker: ado-ado)

| Binder | pKd |
| --- | --- |
| SRSVVESDEL [MYPN, Q86TC9] | below the threshold |

Target: T7, DLG3_1, Q92796
Experiment: holdup assay
Design: key: below the threshold = too weak to quantify, mostly under pKd 3.1 to 4
Details: plain residues with an end cap or a label only (N-terminal biotin on a linker: ado-ado)

| Binder | pKd |
| --- | --- |
| SRSVVESDEL [MYPN, Q86TC9] | below the threshold |

Target: T8, MPDZ_10, O75970
Experiment: holdup assay
Design: key: below the threshold = too weak to quantify, mostly under pKd 3.1 to 4
Details: plain residues with an end cap or a label only (N-terminal biotin on a linker: ado-ado)

| Binder | pKd |
| --- | --- |
| SRSVVESDEL [MYPN, Q86TC9] | below the threshold |
| KRPEMTSSSV [MUC3A, MUC3B, Q02505;Q9H195] | 3.73 |

Target: T9, PDZRN3_1, Q9UPQ7
Experiment: holdup assay
Design: key: below the threshold = too weak to quantify, mostly under pKd 3.1 to 4
Details: plain residues with an end cap or a label only (N-terminal biotin on a linker: ado-ado)

| Binder | pKd |
| --- | --- |
| SRSVVESDEL [MYPN, Q86TC9] | below the threshold |

Target: T10, LIN7B, Q9HAP6
Experiment: holdup assay
Design: key: below the threshold = too weak to quantify, mostly under pKd 3.1 to 4
Details: plain residues with an end cap or a label only (N-terminal biotin on a linker: ado-ado)

| Binder | pKd |
| --- | --- |
| SRSVVESDEL [MYPN, Q86TC9] | below the threshold |
| KRPEMTSSSV [MUC3A, MUC3B, Q02505;Q9H195] | 3.68 |

Target: NHERF4_2, Q86UT5
Experiment: holdup assay
Design: key: below the threshold = too weak to quantify, mostly under pKd 3.1 to 4
Details: plain residues with an end cap or a label only (N-terminal biotin on a linker: ado-ado)

NHERF4_2, Q86UT5, sequence (Q86UT5 220-308): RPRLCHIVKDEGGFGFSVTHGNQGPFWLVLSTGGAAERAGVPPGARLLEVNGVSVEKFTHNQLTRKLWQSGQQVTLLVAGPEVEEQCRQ

| Binder | pKd |
| --- | --- |
| SRSVVESDEL [MYPN, Q86TC9] | below the threshold |
| KRPEMTSSSV [MUC3A, MUC3B, Q02505;Q9H195] | below the threshold |

Target: SNX27, Q96L92
Experiment: holdup assay
Design: key: below the threshold = too weak to quantify, mostly under pKd 3.1 to 4
Details: plain residues with an end cap or a label only (N-terminal biotin on a linker: ado-ado)

| Binder | pKd |
| --- | --- |
| SRSVVESDEL [MYPN, Q86TC9] | 4.17 |

Target: LDB3, O75112
Experiment: holdup assay
Design: key: below the threshold = too weak to quantify, mostly under pKd 3.1 to 4
Details: plain residues with an end cap or a label only (N-terminal biotin on a linker: ado-ado)

LDB3, O75112, sequence (O75112 1-94): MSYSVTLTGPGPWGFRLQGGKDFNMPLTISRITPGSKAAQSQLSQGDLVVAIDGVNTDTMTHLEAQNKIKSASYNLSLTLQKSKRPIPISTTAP

| Binder | pKd |
| --- | --- |
| SRSVVESDEL [MYPN, Q86TC9] | 5.06 |
| KRPEMTSSSV [MUC3A, MUC3B, Q02505;Q9H195] | below the threshold |

Target: FRMPD2_3, Q68DX3
Experiment: holdup assay
Design: key: below the threshold = too weak to quantify, mostly under pKd 3.1 to 4
Details: plain residues with an end cap or a label only (N-terminal biotin on a linker: ado-ado)

FRMPD2_3, Q68DX3, sequence (Q68DX3 1073-1166): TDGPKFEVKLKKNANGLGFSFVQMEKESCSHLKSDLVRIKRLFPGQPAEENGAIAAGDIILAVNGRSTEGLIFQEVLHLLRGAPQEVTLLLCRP

| Binder | pKd |
| --- | --- |
| SRSVVESDEL [MYPN, Q86TC9] | below the threshold |
| KRPEMTSSSV [MUC3A, MUC3B, Q02505;Q9H195] | below the threshold |

Target: SCRIB_1, Q14160
Experiment: holdup assay
Design: key: below the threshold = too weak to quantify, mostly under pKd 3.1 to 4
Details: plain residues with an end cap or a label only (N-terminal biotin on a linker: ado-ado)

SCRIB_1, Q14160, sequence (Q14160 718-814): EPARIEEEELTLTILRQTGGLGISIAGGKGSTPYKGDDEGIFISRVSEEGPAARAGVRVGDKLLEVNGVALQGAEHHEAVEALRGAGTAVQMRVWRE

| Binder | pKd |
| --- | --- |
| SRSVVESDEL [MYPN, Q86TC9] | 3.49 |

Target: NHERF4_4, Q86UT5
Experiment: holdup assay
Design: key: below the threshold = too weak to quantify, mostly under pKd 3.1 to 4
Details: plain residues with an end cap or a label only (N-terminal biotin on a linker: ado-ado)

NHERF4_4, Q86UT5, sequence (Q86UT5 464-550): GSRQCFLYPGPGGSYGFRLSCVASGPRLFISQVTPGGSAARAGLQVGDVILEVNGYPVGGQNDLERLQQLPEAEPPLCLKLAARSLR

| Binder | pKd |
| --- | --- |
| SRSVVESDEL [MYPN, Q86TC9] | below the threshold |

Target: T11, NHERF3_3, Q5T2W1
Experiment: holdup assay
Design: key: below the threshold = too weak to quantify, mostly under pKd 3.1 to 4
Details: plain residues with an end cap or a label only (N-terminal biotin on a linker: ado-ado)

| Binder | pKd |
| --- | --- |
| SRSVVESDEL [MYPN, Q86TC9] | below the threshold |
| KRPEMTSSSV [MUC3A, MUC3B, Q02505;Q9H195] | below the threshold |

Target: T12, RAPGEF6, Q8TEU7
Experiment: holdup assay
Design: key: below the threshold = too weak to quantify, mostly under pKd 3.1 to 4
Details: plain residues with an end cap or a label only (N-terminal biotin on a linker: ado-ado)

| Binder | pKd |
| --- | --- |
| SRSVVESDEL [MYPN, Q86TC9] | below the threshold |

Target: GRID2IP_1, A4D2P6
Experiment: holdup assay
Design: key: below the threshold = too weak to quantify, mostly under pKd 3.1 to 4
Details: plain residues with an end cap or a label only (N-terminal biotin on a linker: ado-ado)

GRID2IP_1, A4D2P6, sequence (A4D2P6 1-87): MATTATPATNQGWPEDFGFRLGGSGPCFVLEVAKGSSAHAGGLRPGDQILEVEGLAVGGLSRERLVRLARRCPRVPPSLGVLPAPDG

| Binder | pKd |
| --- | --- |
| SRSVVESDEL [MYPN, Q86TC9] | below the threshold |
| KRPEMTSSSV [MUC3A, MUC3B, Q02505;Q9H195] | below the threshold |
